Tests used:
[1] = system: brainstem neurons, neurons of the locus coeruleus, GABAergic interneurons of the hindbrain; assay: Electrophysiology, whole cell current clamp recording in brain slices; assay type: cell-based, mouse
Method: Brain slice preparations and electrophysiological recordings were performed according to methods known in the art. Briefly, WT mice were anesthetized with ether and then decapitated. The brains were rapidly removed and immersed in an oxygenated bath solution at […] containing (in mM): sucrose 220, KCl 2.5, CaCl2 1, MgCl2 6, NaH2PO4 1.25, NaHCO3 26, and glucose 10 pH 7.3 with NaOH. Coronal slices (350 μm thick) containing dorsal raphe (DR) were cut on a vibratome and maintained in a holding chamber with artificial cerebrospinal fluid (ACSF) (bubbled with 5% CO2 and 95% O2) containing (in mM): NaCl 124, KCl 3, CaCl2 2, MgCl2 2, NaH2PO4 1.23, NaHCO3 26, glucose 10, pH 7.4 with NaOH, and were transferred to a recording chamber constantly perfused with bath solution (330 C) at 2 ml/min after at least a 1 hr recovery. Whole-cell current clamp was performed to observe action potentials in DR serotoninergic (5-HT) neurons with a Multiclamp 700A amplifier (Axon instrument, CA). Patch pipettes with a tip resistance of 4-6 MS2 were made of borosilicate glass (World Precision Instruments) with a Sutter pipette puller (P-97) and filled with a pipette solution containing (in mM): K-gluconate (or Cs-gluconate) 135, MgCl2 2, HEPES 10, EGTA 1.1, Mg-ATP 2, Na2-phosphocreatine 10, and Na2-GTP 0.3, pH 7.3 with KOH. After a giga-Ohm (GΩ) seal and whole-cell access were achieved, the series resistance (between 20 and 40 MΩ) was partially compensated by the amplifier. […] Electrophysiological data were analyzed with Axograph 4.9 and plotted with Igor Pro software (WaveMetrics, Lake Oswego, Oreg.).
To determine if osteocalcin acts directly on neurons to modulate neurotransmitter synthesis, several types of assays were performed. […] Third, to further confirm that osteocalcin signals in neurons of the hindbrain, calcium flux in MPHN treated with undercarboxylated or carboxylated osteocalcin (FIG. 3F) was measured. […]

aged WT mice = assay: ICV infusion in aged WT mice, Novel Object Recognition test; assay type: in vivo, mouse; conditions: ICV 10 ng/hr for one month, 16 month old WT mice
Method: FIG. 9. Osteocalcin improves hippocampal function in aged wild-type (WT) mice. Constant and novel object investigation in the Novel Object Recognition test in 17 month old mice treated for 1 month with vehicle or 10 ng/hr recombinant uncarboxylated osteocalcin.
ICV pumps delivering (10 ng/hr) recombinant uncarboxylated full-length mouse osteocalcin were implanted in 16 month old WT mice. After an infusion period of one month, the mice were subjected to a modified version of the Novel Object Recognition test, to assay memory and hippocampal function. Briefly, mice were given five 5 minute exposures, with 3 minute resting intervals between exposures, to a novel arena containing two objects. During exposures 1-4, mice were habituated to these two objects, which elicited equal amounts of exploration. In the fifth exposure, one of the objects was replaced with a novel object.

B1: uncarboxylated osteocalcin: Recombinant osteocalcin bacterially produced, cleaved from the GST subunit; completely undercarboxylated at all three sites (protein, listed as Homo sapiens)
chain: MRALTLLALLALAALCIAGQAGAKPSGAESSKGAAFVSKQEGSEVVKRPRRYLYQWLGAPVPYPDPLEPRREVCELNPDCDELADHIGFQEAYRRFYGPV
modifications: uncarboxylated
notes: Recombinant osteocalcin bacterially produced, cleaved from the GST subunit; completely undercarboxylated at all three sites
[1]
  action potential frequency of the GABAergic interneurons of the hindbrain: inhibits
[1]; whole cell current clamp
  action potential frequency in neurons of the locus coeruleus: decreases
  action potential frequency of brainstem neurons: activates
Aged WT mice
  discrimination between novel and constant objects: able to discriminate between the novel and constant objects

Source: patent US10052364B2, “Osteocalcin as a treatment for cognitive disorders” (THE TRUSTEES OF COLUMBIA UNIVERSITY IN THE CITY OF NEW YORK, priority 2013, dated 2018)
